In assay [1] the target is human XIAP protein (residues 120-356) (human) (UniProt P98170). In words: fluorescence polarization competition against the Smac2-F tracer.
The target in assay [2] is caspase-3 (UniProt P42574). In words: cell-based or functional assay.
Assay [3] deals with caspase-7 (UniProt P55210). As to the kind of experiment: cell-based or functional assay.
In assay [4] the target is T1, recombinant XIAP BIR3 protein of human XIAP (residues 241-356) fused to His-tag (human, UniProt P98170 241-356).
T1 construct: range 241-356; not shown: His-tag
As to the kind of experiment: fluorescence polarization, direct binding of the labelled peptide. (In fluorescence polarisation assays a small probe gives low polarisation when free and higher when bound to something large.)

Non-standard residues stand in square brackets, D forms with d. No end group written: not given here. *: point of attachment. 5FAM = O=C1OC2(c3ccc(O)cc3Oc3cc(O)ccc32)c2ccc(C(=O)*)cc21; Abu = CC[C@H](N)C(=O)O

Chain of caspase-3 (P42574 29-277 limits assumed): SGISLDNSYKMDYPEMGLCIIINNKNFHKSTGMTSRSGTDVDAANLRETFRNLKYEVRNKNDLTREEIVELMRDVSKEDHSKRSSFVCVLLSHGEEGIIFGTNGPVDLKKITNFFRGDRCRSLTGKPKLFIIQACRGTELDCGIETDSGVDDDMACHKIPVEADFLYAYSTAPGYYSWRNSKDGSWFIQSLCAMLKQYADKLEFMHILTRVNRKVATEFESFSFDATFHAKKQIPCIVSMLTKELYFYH
Chain of caspase-7 (P55210 24-303 limits assumed): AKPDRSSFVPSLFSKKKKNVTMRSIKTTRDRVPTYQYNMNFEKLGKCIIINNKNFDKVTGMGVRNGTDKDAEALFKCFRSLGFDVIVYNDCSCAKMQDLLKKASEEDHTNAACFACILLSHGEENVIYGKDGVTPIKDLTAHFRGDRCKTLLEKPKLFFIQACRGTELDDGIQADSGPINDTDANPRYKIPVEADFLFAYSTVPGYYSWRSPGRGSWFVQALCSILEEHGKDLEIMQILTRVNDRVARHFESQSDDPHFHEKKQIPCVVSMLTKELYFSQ
T1 sequence (P98170 241-356 limits assumed): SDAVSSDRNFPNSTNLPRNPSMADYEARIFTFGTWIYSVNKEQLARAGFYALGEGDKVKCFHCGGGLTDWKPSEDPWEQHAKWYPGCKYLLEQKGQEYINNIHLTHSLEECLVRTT
Chain of human XIAP protein (residues 120-356) (human) (P98170 120-356 limits assumed): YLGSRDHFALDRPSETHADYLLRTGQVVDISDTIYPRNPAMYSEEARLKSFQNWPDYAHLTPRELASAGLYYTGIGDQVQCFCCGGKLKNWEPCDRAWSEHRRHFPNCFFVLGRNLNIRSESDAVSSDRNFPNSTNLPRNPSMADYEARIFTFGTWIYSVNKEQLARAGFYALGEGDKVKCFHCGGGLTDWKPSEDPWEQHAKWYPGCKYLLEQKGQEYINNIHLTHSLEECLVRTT

“natural Smac peptide AVPI (SEQ ID NO: 1)”: the fold less potent than the small molecule SH-164 (IC50 […] nM) in the competitive binding assay in assay [1] was > 5000 fold.
For the molecule “human XIAP protein (residues 120-356) (from UniProt P98170 120-356)”, the inhibition of caspase-3/-7 activity, cell-free functional assay in assay [2] and in assay [3] was 50 nM each time.

B1: mutated Smac peptide AbuRPF-K-(5-Fam)-NH2 (termed SM5F) (peptide)
peptide: [Abu]RPFK(5FAM)-NH2
modifications: N-terminus assumed
SMILES: CC[C@H](N)C(=O)N[C@@H](CCCNC(=N)N)C(=O)N1CCC[C@H]1C(=O)N[C@@H](Cc1ccccc1)C(=O)N[C@@H](CCCCNC(=O)c1ccc2c(c1)C(=O)OC21c2ccc(O)cc2Oc2cc(O)ccc21)C(N)=O
notes: Fluorescent tracer of the XIAP BIR3 fluorescence polarization assay; also called SM5F peptide
In general, Kd refers to the equilibrium constant for the complex coming apart. Consider B1, for which the Kd in assay [4] came to 17.9 nM.

(Values after patent publication US20090123480A1 (REGENTS OF THE UNIVERSITY OF MICHIGAN, published 2009).)
